Patent US20240150422A1 (ONKO INNATE, published 2024)
Positions count from the first letter of the chain named. Names may count otherwise.

B1: IL-12 Fc K170A mutant (Fc-C-terminal fusion format of Example 1) (Fc fusion, not shown: a dimerising Fc or GST)
chain 1: GGGGSGGGGSGGGGSTRRNLPVATPDPGMFPCLHHSQNLLRAVSNMLQKARQTLEFYPCTSEEIDHEDITKDKTSTVEACLPLELTKNESCLNSRETSFITNGSCLASRKTSFMMALCLSSIYEDLKMYQVEFKTMNAKLLMDPKRQIFLDQNMLAVIDELMQALNFNSETVPQKSSLEEPDFYKTAIKLCILLHAFRIRAVTIDRVMSYLNAS
chain 2: GGGGSGGGGSGGGGSTRIWELKKDVYVVELDWYPDAPGEMVVLTCDTPEEDGITWTLDQSSEVLGSGKTLTIQVKEFGDAGQYTCHKGGEVLSHSLLLLHKKEDGIWSTDILKDQKEPKNKTFLRCEAKNYSGRFTCWWLTTISTDLTFSVKSSRGSSDPQGVTCGAATLSAERVRGDNKEYEYSVECQEDSACPAAEESLPIEVMVDAVHKLKYENYTSSFFIRDIIKPDPPKNLQLKPLKNSRQVEVSWEYPDTWSTPHSYFSLTFCVQVQGKSKREKKDRVFTDKTSATVICRKNASISVRAQDRYYSSSWSEWASVPCS
B2: IL-12 Fc single mutant D126A (Fc-C-terminal fusion format of Example 1) (Fc fusion)
chain 1: B1 chain 1 with D143A, A187K
chain 2: B1 chain 2
notes: not shown: human IgG1 Fc (knob) with artificial disulfide and N297G; human IgG1 Fc (hole) with artificial disulfide and N297G
B3: IL-12 Fc single mutant K168A (Fc-C-terminal fusion format of Example 1) (Fc fusion)
chain 1: B1 chain 1 with K185A, A187K
chain 2: B1 chain 2
notes: as for B2
B4: IL-12 Fc single mutant P127A (Fc-C-terminal fusion format of Example 1) (Fc fusion)
chain 1: B1 chain 1 with P144A, A187K
chain 2: B1 chain 2
notes: as for B2
B5: IL-12 Fc single mutant Y40A (Fc-C-terminal fusion format of Example 1) (Fc fusion, not shown: a dimerising Fc or GST)
chain 1: B1 chain 1 with Y57A, A187K
chain 2: B1 chain 2
B6: truncated form of the IL-12Rβ2 extracellular region (domains 1-3) (receptor)
chain: KIDACKRGDVTVKPSHVILLGSTVNITCSLKPRQGCFHYSRRNKLILYKFDRRINFHHGHSLNSQVTGLPLGTTLFVCKLACINSDEIQICGAEIFVGVAPEQPQNLSCIQKGEQGTVACTWERGRDTHLYTEYTLQLSGPKNLTWQKQCKDIYCDYLDFGINLTPESPESNFTAKVTAVNSLGSSSSLPSTFTFLDIVRPLPPWDIRIKFQKASVSRCTLYWRDEGLVLLNRLRYRPSNSRLWNMVNVTKAKGRHDLLDLKPFTEYEFQISSKLHLYKGSWSDWSESLRAQTPEE
notes: also called interleukin 12 receptor beta 2

What was measured:
[1] = target: IL-12 receptor on HEK-Blue IL-12 cells (InvivoGen) (human, UniProt P42701 24-662; Q99665 24-862); assay: cell-based or functional assay
[2] = target: B6; assay: SPR (Biacore T100, 20 C); IL-12 Fc captured on a protein A chip (220 RU), IL-12Rbeta2 (domains 1-3) as analyte; 1:1 Langmuir model
Protocol: (§1) SPR measurements were recorded on a Biacore T100 at 20° C. in a buffer comprising 20 mM sodium phosphate pH 7.4, 150 mM NaCl and 0.05% Tween20. […] Following a 300 second dissociation phase, the remaining bound IL-12Rβ2 was washed off the chip using 50 mM Glycine pH 2.5, followed by 50 mM NaOH (30 second injections for each). Kinetic parameters were calculated using BIAevaluation software using a 1:1 Langmuir model, following subtraction of binding to a reference flow cell containing an isotype control antibody.

[3] = target: B6; assay: SPR (Biacore T100, 20 C); IL-12 Fc captured on a protein A chip (230 RU), IL-12Rbeta2 (domains 1-3) as analyte; 1:1 Langmuir model
Protocol: as §1

[4] = target: B6; assay: SPR (Biacore T100, 20 C); IL-12 Fc captured on a protein A chip (190 RU), IL-12Rbeta2 (domains 1-3) as analyte; 1:1 Langmuir model
Protocol: as §1

[5] = target: T1, wild-type IL-12 heterodimeric Fc fusion protein (IgG1Fc(knob)-IL12p35 / IgG1Fc(hole)-IL12p40) (human, UniProt P29459 23-219; P29460 23-328); assay: SPR (Biacore T100, 20 °C), IL-12 Fc captured on protein A chip, IL-12Rβ2 domains 1-3 as analyte, 1:1 Langmuir model
T1 construct: also called wild-type IL-12 Fc; IL-12 Fc wt; not shown: human IgG1 Fc (knob) with artificial disulfide and N297G; human IgG1 Fc (hole) with artificial disulfide and N297G
T1 sequence 1: B1 chain 1 with A187K
T1 sequence 2: B1 chain 2

[6] = target: T1, wild-type IL-12 heterodimeric Fc fusion …; assay: SPR as in Example 3; immobilized IL-12 Fc, IL-12Rbeta2 injected at 0.7-500 nM
Protocol: as §1

## B1
[1]
  HEK-Blue IL-12 reporter assay, fold reduction in EC50 value: ~16 fold (vs wild-type)

## B2
[2]
  Kd: 42.9 nM

## B3
[3]
  Kd: 130 nM

## B4
[1]
  HEK-Blue IL-12 reporter assay, fold reduction in potency: ~2 fold (vs IL-12 Fc w.t.)
[4]
  Kd: 44.3 nM

## B5
[1]
  HEK-Blue IL-12 reporter assay, fold reduction in EC50 value: ~17 fold (vs IL-12 Fc w.t.)
  HEK-Blue IL-12 reporter assay, fold reduction in potency: ~29 fold (vs IL-12 Fc w.t.)

## B6
[5]
  Kd: 13.1 nM
[6]
  Kd: 53.2 nM
